Starred links: 1 amine or outer side, 2 acyl side, 3 side chain; linkers in the order of their positions; H or OH if unused. Positions of bridges follow the written chain, without caps; N, C: chain ends. Non-standard residues stand in square brackets, D forms with d. Chains are numbered I, II in the order given. No end group written: not given here. *: point of attachment. 2OEGgEgE‑C18 diacid = O=C(O)CCCCCCCCCCCCCCCCC(=O)N[C@@H](CCC(=O)N[C@@H](CCC(=O)NCCOCCOCC(=O)NCCOCCOCC(=O)*)C(=O)O)C(=O)O; C18 diacid = O=C(O)CCCCCCCCCCCCCCCCC(=O)*; γGlu = O=C(O)[C@H](CCC(=O)[*:2])N[*:1]; NMeY = CN[C@@H](Cc1ccc(O)cc1)C(=O)O; Aib = CC(C)(N)C(=O)O
T1: full-length human GIPR with an N-terminal FLAG tag (human, UniProt P48546 22-466)
T1 sequence (looked up): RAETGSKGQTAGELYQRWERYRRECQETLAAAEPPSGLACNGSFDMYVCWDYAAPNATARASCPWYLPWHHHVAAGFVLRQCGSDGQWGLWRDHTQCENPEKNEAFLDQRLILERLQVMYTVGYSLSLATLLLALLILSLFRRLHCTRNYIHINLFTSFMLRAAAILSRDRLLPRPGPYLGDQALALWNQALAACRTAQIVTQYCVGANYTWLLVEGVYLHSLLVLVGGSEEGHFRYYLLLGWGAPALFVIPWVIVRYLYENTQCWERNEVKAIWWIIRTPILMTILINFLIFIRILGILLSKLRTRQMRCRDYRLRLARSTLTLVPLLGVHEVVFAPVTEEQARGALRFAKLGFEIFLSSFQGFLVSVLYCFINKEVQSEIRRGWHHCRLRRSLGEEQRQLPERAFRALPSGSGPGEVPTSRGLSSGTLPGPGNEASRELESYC


Legend:
[1] = physchem
Outline: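 3 mg of peptide treated with 100 μL portions of 200 mM phosphate buffer pH 7.4, sonicating/vortexing up to 1 min, with further buffer added until fully dissolved. Solubility then quantified by HPLC.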

[2] = biological target: full-length human GLP-1R with an N-terminal FLAG tag (human, UniProt P43220 24-463); assay: cell-based or functional assay
[3] = biological target: T1, full-length human GIPR with an …; assay: cell-based or functional assay
[4] = pH 7.4, aqueous buffer, pH 7.4 Phosphate Buffer - Solubility, 200 mM Phosphate buffer pH 7.4
[5] = pH 7.4, solubility in phosphate buffer at pH 7.4, 200 mM phosphate buffer pH 7.4

| Molecule | Human GLP1R cAMP EC50, HEK293T [2] [nM] | Human GIPR cAMP EC50, HEK293T [3] [nM] | further results |
| --- | --- | --- | --- |
| CC[C@H](C)[C@H](NC(=O)[C@H](CO)NC(=O)[C@H](Cc1ccc(O)cc1)NC(=O)[C@H](CC(=O)O)NC(=O)[C@H](CO)NC(=O)[C@@H](NC(=O)[C@H](Cc1ccccc1)NC(=O)[C@@H](NC(=O)CNC(=O)[C@H](CCC(=O)O)NC(=O)C(C)(C)NC(=O)[C@H](Cc1ccc(O)cc1)NC)[C@@H](C)O)[C@@H](C)CC)C(=O)N[C@@H](C)C(=O)N[C@@H](CC(C)C)C(=O)N[C@@H](CC(=O)O)C(=O)N[C@@H](CCCNC(=N)N)C(=O)N[C@@H](CCCCNC(=O)CNC(=O)CNC(=O)CNC(=O)CNC(=O)CNC(=O)CCCCCCCCCCCCCCCCC(=O)O)C(=O)N[C@@H](C)C(=O)N[C@@H](CCC(N)=O)C(=O)NC(C)(C)C(=O)N[C@@H](CC(N)=O)C(=O)N[C@@H](Cc1ccccc1)C(=O)N[C@H](C(=O)N[C@@H](CC(N)=O)C(=O)N[C@@H](Cc1c[nH]c2ccccc12)C(=O)N[C@@H](CC(C)C)C(=O)N[C@@H](CC(C)C)C(=O)N[C@@H](C)C(=O)N[C@@H](CCC(N)=O)C(=O)N[C@@H](CO)C(=O)N1CCC[C@H]1C(=O)NCC(=O)O)C(C)C [Compound 290] | – | – | solubility ([1]; pH 7.4, aqueous buffer): ≥ 7.5 mg/mL |
| CC[C@H](C)[C@H](NC(=O)[C@H](CO)NC(=O)[C@H](Cc1ccc(O)cc1)NC(=O)[C@H](CC(=O)O)NC(=O)[C@H](CO)NC(=O)[C@@H](NC(=O)[C@H](Cc1ccccc1)NC(=O)[C@@H](NC(=O)CNC(=O)[C@H](CCC(=O)O)NC(=O)C(C)(C)NC(=O)[C@@H](N)Cc1ccc(O)cc1)[C@@H](C)O)[C@@H](C)CC)C(=O)N[C@@H](C)C(=O)N[C@@H](CCCCNC(=O)CNC(=O)CNC(=O)CNC(=O)CNC(=O)CNC(=O)CCCCCCCCCCCCCCCCC(=O)O)C(=O)N[C@@H](CC(=O)O)C(=O)N[C@@H](CCCNC(=N)N)C(=O)N[C@@H](C)C(=O)N[C@@H](C)C(=O)N[C@@H](CCC(N)=O)C(=O)NC(C)(C)C(=O)N[C@@H](CC(=O)O)C(=O)N[C@@H](Cc1ccccc1)C(=O)N[C@H](C(=O)N[C@@H](CCC(=O)O)C(=O)N[C@@H](Cc1c[nH]c2ccccc12)C(=O)N[C@@H](CC(C)C)C(=O)N[C@@H](CC(C)C)C(=O)N[C@@H](C)C(=O)N[C@@H](CCC(N)=O)C(=O)N[C@@H](CCCNC(=N)N)C(=O)NCC(=O)O)C(C)C [Compound 291] | – | – | solubility ([1]; pH 7.4, aqueous buffer): < 6 mg/mL |
| CC[C@H](C)[C@H](NC(=O)[C@H](CCCNC(=N)N)NC(=O)[C@H](CC(=O)O)NC(=O)[C@H](CCCCNC(=O)CNC(=O)CNC(=O)CNC(=O)CNC(=O)CNC(=O)CCCCCCCCCCCCCCCCC(=O)O)NC(=O)[C@H](C)NC(=O)[C@@H](NC(=O)[C@H](CO)NC(=O)[C@H](Cc1ccc(O)cc1)NC(=O)[C@H](CC(=O)O)NC(=O)[C@H](CO)NC(=O)[C@@H](NC(=O)[C@H](Cc1ccccc1)NC(=O)[C@@H](NC(=O)CNC(=O)[C@H](CCC(=O)O)NC(=O)C(C)(C)NC(=O)[C@H](Cc1ccc(O)cc1)NC)[C@@H](C)O)[C@@H](C)CC)[C@@H](C)CC)C(=O)N[C@@H](C)C(=O)N[C@@H](CCC(N)=O)C(=O)N[C@@H](CCC(N)=O)C(=O)N[C@@H](CC(N)=O)C(=O)N[C@@H](Cc1ccccc1)C(=O)N[C@H](C(=O)N[C@@H](CC(N)=O)C(=O)N[C@@H](Cc1c[nH]c2ccccc12)C(=O)N[C@@H](CC(C)C)C(=O)N[C@@H](CC(C)C)C(=O)N[C@@H](C)C(=O)N[C@@H](CCC(N)=O)C(=O)N[C@@H](CO)C(=O)N1CCC[C@H]1C(=O)N[C@@H](CO)C(=O)N[C@@H](CO)C(=O)NCC(=O)N[C@@H](C)C(=O)N1CCC[C@H]1C(=O)N1CCC[C@H]1C(=O)N1CCC[C@H]1C(=O)N[C@@H](CO)C(=O)O)C(C)C [Compound 292] | – | – | solubility [1, 4]: < 6 mg/mL |
| I: H-[NMeY][Aib]EGTFISDYSIALDR[Aib]AQ[Aib]KFVNWLLAQSPSSGAPPPS-OH / II: {C18 diacid-γGlu}-PAPAPGG (amide I:21-II:C) [Compound 104] | – | – | solubility [1, 4]: ≥ 60 mg/mL; solubility [1, 5]: ≥ 15 mg/mL |
| I: H-[NMeY][Aib]EGTFISDYSIALDR[Aib]KQ[Aib]DFVNWLLAQSPSSGAPPPS-OH / II: {C18 diacid}-PAPAPGG (amide I:18-II:C) [Compound 102] | – | – | solubility [1, 4]: ≥ 60 mg/mL; solubility [1, 5]: ≥ 15 mg/mL |
| YXEGTFISDYSIXXDRXAQXDFVNWLLAQSG (N-methyl Tyr 1; Aib at 2,13,17,20; Lys(G5-C18 diacid) at 14; C-terminal OH) [Compound No. 53] | 47.9 | 0.0005 | – |
| [NMeY][Aib]EGTFISDYSIALDRK(2OEGgE‑C18 diacid)HQQNFVNWLLAQRPSSGAPPPS-NH2 [Compound No. 4] | 38.9 | 0.001 | – |
| [NMeY][Aib]EGTFISDYSIALDR[Aib]AQ[Aib]NFVNWLLAK(2OEGgEgE‑C18 diacid)RG-OH (N-terminus assumed; SMILES CC[C@H](C)[C@H](NC(=O)[C@H](CO)NC(=O)[C@H](Cc1ccc(O)cc1)NC(=O)[C@H](CC(=O)O)NC(=O)[C@H](CO)NC(=O)[C@@H](NC(=O)[C@H](Cc1ccccc1)NC(=O)[C@@H](NC(=O)CNC(=O)[C@H](CCC(=O)O)NC(=O)C(C)(C)NC(=O)[C@H](Cc1ccc(O)cc1)NC)[C@@H](C)O)[C@@H](C)CC)C(=O)N[C@@H](C)C(=O)N[C@@H](CC(C)C)C(=O)N[C@@H](CC(=O)O)C(=O)N[C@@H](CCCNC(=N)N)C(=O)NC(C)(C)C(=O)N[C@@H](C)C(=O)N[C@@H](CCC(N)=O)C(=O)NC(C)(C)C(=O)N[C@@H](CC(N)=O)C(=O)N[C@@H](Cc1ccccc1)C(=O)N[C@H](C(=O)N[C@@H](CC(N)=O)C(=O)N[C@@H](Cc1c[nH]c2ccccc12)C(=O)N[C@@H](CC(C)C)C(=O)N[C@@H](CC(C)C)C(=O)N[C@@H](C)C(=O)N[C@@H](CCCCNC(=O)COCCOCCNC(=O)COCCOCCNC(=O)CC[C@H](NC(=O)CC[C@H](NC(=O)CCCCCCCCCCCCCCCCC(=O)O)C(=O)O)C(=O)O)C(=O)N[C@@H](CCCNC(=N)N)C(=O)NCC(=O)O)C(C)C) [Compound No. 55] | 741 | 0.0009 | – |
| [NMeY][Aib]EGTFISDYSIALDR[Aib]AQ[Aib]DFVNWLLAK(2OEGgEgE‑C18 diacid)RGGGGS-NH2 (N-terminus assumed; SMILES CC[C@H](C)[C@H](NC(=O)[C@H](CO)NC(=O)[C@H](Cc1ccc(O)cc1)NC(=O)[C@H](CC(=O)O)NC(=O)[C@H](CO)NC(=O)[C@@H](NC(=O)[C@H](Cc1ccccc1)NC(=O)[C@@H](NC(=O)CNC(=O)[C@H](CCC(=O)O)NC(=O)C(C)(C)NC(=O)[C@H](Cc1ccc(O)cc1)NC)[C@@H](C)O)[C@@H](C)CC)C(=O)N[C@@H](C)C(=O)N[C@@H](CC(C)C)C(=O)N[C@@H](CC(=O)O)C(=O)N[C@@H](CCCNC(=N)N)C(=O)NC(C)(C)C(=O)N[C@@H](C)C(=O)N[C@@H](CCC(N)=O)C(=O)NC(C)(C)C(=O)N[C@@H](CC(=O)O)C(=O)N[C@@H](Cc1ccccc1)C(=O)N[C@H](C(=O)N[C@@H](CC(N)=O)C(=O)N[C@@H](Cc1c[nH]c2ccccc12)C(=O)N[C@@H](CC(C)C)C(=O)N[C@@H](CC(C)C)C(=O)N[C@@H](C)C(=O)N[C@@H](CCCCNC(=O)COCCOCCNC(=O)COCCOCCNC(=O)CC[C@H](NC(=O)CC[C@H](NC(=O)CCCCCCCCCCCCCCCCC(=O)O)C(=O)O)C(=O)O)C(=O)N[C@@H](CCCNC(=N)N)C(=O)NCC(=O)NCC(=O)NCC(=O)NCC(=O)N[C@@H](CO)C(N)=O)C(C)C) [Compound No. 57] | > 1000 | 0.0006 | – |
| YXEGTFISDYSIXXDRXAQXDFVNWLLAQRPSSGAPPPS (N-methyl Tyr 1; Aib at 2,13,17,20; Lys(G5-C18 diacid) at 14; C-terminal OH) [Compound No. 54] | 120 | 0.0006 | – |
| YXEGTFISDYSIAXDRXAQXNFVNWLLAQSPSSGAPPPS (N-methyl Tyr 1; Aib at 2,17,20; Lys(G5-C20 diacid) at 14; C-terminal OH) [Compound No. 112] | – | 0.0003 | – |
| YXEGTFISDYSIAXDRXAQXNFVNWLLAQSPSSGAPPPS (N-methyl Tyr 1; Aib at 2,17,20; Lys(G5-C20 diacid) at 14; C-terminal OH) [Compound No. 40] | – | 0.0007 | – |
| [NMeY][Aib]EGTFISDYSIALDR[Aib]AQ[Aib]DFVNWLLAK(2OEGgEgE‑C18 diacid)RG-OH (N-terminus assumed; SMILES CC[C@H](C)[C@H](NC(=O)[C@H](CO)NC(=O)[C@H](Cc1ccc(O)cc1)NC(=O)[C@H](CC(=O)O)NC(=O)[C@H](CO)NC(=O)[C@@H](NC(=O)[C@H](Cc1ccccc1)NC(=O)[C@@H](NC(=O)CNC(=O)[C@H](CCC(=O)O)NC(=O)C(C)(C)NC(=O)[C@H](Cc1ccc(O)cc1)NC)[C@@H](C)O)[C@@H](C)CC)C(=O)N[C@@H](C)C(=O)N[C@@H](CC(C)C)C(=O)N[C@@H](CC(=O)O)C(=O)N[C@@H](CCCNC(=N)N)C(=O)NC(C)(C)C(=O)N[C@@H](C)C(=O)N[C@@H](CCC(N)=O)C(=O)NC(C)(C)C(=O)N[C@@H](CC(=O)O)C(=O)N[C@@H](Cc1ccccc1)C(=O)N[C@H](C(=O)N[C@@H](CC(N)=O)C(=O)N[C@@H](Cc1c[nH]c2ccccc12)C(=O)N[C@@H](CC(C)C)C(=O)N[C@@H](CC(C)C)C(=O)N[C@@H](C)C(=O)N[C@@H](CCCCNC(=O)COCCOCCNC(=O)COCCOCCNC(=O)CC[C@H](NC(=O)CC[C@H](NC(=O)CCCCCCCCCCCCCCCCC(=O)O)C(=O)O)C(=O)O)C(=O)N[C@@H](CCCNC(=N)N)C(=O)NCC(=O)O)C(C)C) [Compound No. 56] | > 1000 | 0.0006 | – |

— patent US20230143604A1, “QW DOSING OF GIP RECEPTOR AGONIST PEPTIDE COMPOUNDS AND USES THEREOF” (TAKEDA PHARMACEUTICAL COMPANY LIMITED, priority 2020, published 2023)
